Key:
Test in all cases: fluorescence anisotropy
[2Fe-2S]-IscR-S40A = target: T1, [2Fe-2S]-IscR-S40A (Escherichia coli, UniProt P0AGK8 1-162, S40A)
T1 sequence: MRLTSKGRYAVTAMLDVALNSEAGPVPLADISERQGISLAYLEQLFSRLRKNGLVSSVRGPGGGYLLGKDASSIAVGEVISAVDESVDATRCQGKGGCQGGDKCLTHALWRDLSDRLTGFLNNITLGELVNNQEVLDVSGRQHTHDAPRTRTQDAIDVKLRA

[2Fe-2S]-IscR-R59A = target: T2, [2Fe-2S]-IscR-R59A (Escherichia coli, UniProt P0AGK8 1-162, R59A)
T2 sequence: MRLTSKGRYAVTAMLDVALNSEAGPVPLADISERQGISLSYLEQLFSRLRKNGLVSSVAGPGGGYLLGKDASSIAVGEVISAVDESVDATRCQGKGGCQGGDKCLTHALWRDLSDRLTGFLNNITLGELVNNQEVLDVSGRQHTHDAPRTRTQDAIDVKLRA

[2Fe-2S]-IscR wild-type = target: T3, [2Fe-2S]-IscR wild-type (Escherichia coli, UniProt P0AGK8 1-162)
T3 sequence: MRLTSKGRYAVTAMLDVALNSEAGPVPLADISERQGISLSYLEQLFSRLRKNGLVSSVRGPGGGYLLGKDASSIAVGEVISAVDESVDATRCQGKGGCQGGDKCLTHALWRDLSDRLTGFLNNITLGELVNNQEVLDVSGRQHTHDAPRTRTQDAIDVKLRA

[2Fe-2S]-IscR-E43A = target: T4, [2Fe-2S]-IscR-E43A (Escherichia coli, UniProt P0AGK8 1-162, E43A)
T4 sequence: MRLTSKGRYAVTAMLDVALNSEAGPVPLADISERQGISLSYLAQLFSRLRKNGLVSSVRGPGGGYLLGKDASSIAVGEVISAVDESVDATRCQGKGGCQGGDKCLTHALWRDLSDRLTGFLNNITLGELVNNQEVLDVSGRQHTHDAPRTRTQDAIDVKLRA

B1: iscRB 30-mer (type 1) (dsDNA)
DNA 1: AAATAGTTGACCATTTTACTCGGGAATGTC
DNA 2: GACATTCCCGAGTAAAATGGTCAACTATTT
Q: What does the source list for B1?
A: Kd ([2Fe-2S]-IscR-S40A): 0.094 ± 0.003 µM; binding result ([2Fe-2S]-IscR-R59A): no binding; Kd ([2Fe-2S]-IscR wild-type): 0.024 ± 0.001 µM; Kd ([2Fe-2S]-IscR-E43A): 0.021 ± 0.001 µM

B2: hya 30-mer (type 2) (dsDNA)
DNA 1: ATAAATCCACACAGTTTGTATTGTTTTGTG
DNA 2: CACAAAACAATACAAACTGTGTGGATTTAT
Q: Does B2 bind ([2Fe-2S]-IscR-E43A)?
A: binds

B3: iscRBcc (symmetrical CC) (dsDNA)
DNA 1: AAATAGCCGACCATTTTACTCGGGAATGTC
DNA 2: GACATTCCCGAGTAAAATGGTCGGCTATTT
Q: Does B3 bind ([2Fe-2S]-IscR wild-type)?
A: binds

From publication PMC3676455
